Paper PMC9582721, “Hepatitis C virus nonstructural protein NS3 unfolds viral G-quadruplex RNA structures”

Columns and labels:
[1] = target: T1, NS3 (nonstructural protein 3, protease-helicase) (Hepatitis C virus genotype 1b (con1b), UniProt Q9WMX2 1027-1657); test: fluorescence anisotropy; 100 mM KCl; 6 nM RNA; 25 mM MOPS pH 6.5, 100 mM KCl, 0.1 mM EDTA, 2 mM beta-mercaptoethanol, 0.1 mg/ml BSA, 37 C, 30 min; RNA 2 nM unless stated, folded in 100 mM KCl; details: protein: recombinant; label: 3'-6FAM; parallel G4 with 3' overhang 20 nt
[2] = target: T1, NS3 (nonstructural protein 3, …); test: fluorescence anisotropy; 100 mM KCl; same data, two-sites fit, Kd1; 25 mM MOPS pH 6.5, 100 mM KCl, 0.1 mM EDTA, 2 mM beta-mercaptoethanol, 0.1 mg/ml BSA, 37 C, 30 min; RNA 2 nM unless stated, folded in 100 mM KCl; details: protein: recombinant; label: 3'-6FAM; single-stranded
[3] = target: T1, NS3 (nonstructural protein 3, …); test: fluorescence anisotropy; 100 mM KCl; quadratic fit; 25 mM MOPS pH 6.5, 100 mM KCl, 0.1 mM EDTA, 2 mM beta-mercaptoethanol, 0.1 mg/ml BSA, 37 C, 30 min; RNA 2 nM unless stated, folded in 100 mM KCl; details: protein: recombinant; label: 3'-6FAM; single-stranded
[4] = target: T1, NS3 (nonstructural protein 3, …); test: fluorescence anisotropy; 100 mM KCl; 25 mM MOPS pH 6.5, 100 mM KCl, 0.1 mM EDTA, 2 mM beta-mercaptoethanol, 0.1 mg/ml BSA, 37 C, 30 min; RNA 2 nM unless stated, folded in 100 mM KCl; details: protein: recombinant, label: 3'-6FAM
[5] = target: T1, NS3 (nonstructural protein 3, …); test: fluorescence anisotropy; 100 mM KCl; 5.4 nM RNA; 25 mM MOPS pH 6.5, 100 mM KCl, 0.1 mM EDTA, 2 mM beta-mercaptoethanol, 0.1 mg/ml BSA, 37 C, 30 min; RNA 2 nM unless stated, folded in 100 mM KCl; details: protein: recombinant; label: 3'-6FAM; parallel G4 with 3' overhang 20 nt

T1 sequence (Q9WMX2 1027-1657): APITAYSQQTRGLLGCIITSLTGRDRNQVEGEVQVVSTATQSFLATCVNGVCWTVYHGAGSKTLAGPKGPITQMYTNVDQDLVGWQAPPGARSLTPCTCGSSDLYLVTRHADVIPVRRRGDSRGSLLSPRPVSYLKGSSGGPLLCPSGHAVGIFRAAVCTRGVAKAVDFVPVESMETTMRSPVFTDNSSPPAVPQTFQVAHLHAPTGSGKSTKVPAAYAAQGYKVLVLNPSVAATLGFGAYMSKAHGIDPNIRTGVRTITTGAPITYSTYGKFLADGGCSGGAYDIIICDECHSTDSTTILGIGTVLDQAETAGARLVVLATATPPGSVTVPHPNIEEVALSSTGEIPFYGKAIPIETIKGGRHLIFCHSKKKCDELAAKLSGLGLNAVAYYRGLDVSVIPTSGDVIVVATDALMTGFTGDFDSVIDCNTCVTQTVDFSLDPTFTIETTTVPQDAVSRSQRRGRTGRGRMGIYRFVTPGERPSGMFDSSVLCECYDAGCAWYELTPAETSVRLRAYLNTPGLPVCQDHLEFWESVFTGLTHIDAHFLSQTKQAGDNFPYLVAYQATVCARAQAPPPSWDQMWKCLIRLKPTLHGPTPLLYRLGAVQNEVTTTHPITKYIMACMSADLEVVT

Q: With AAGGGUGGGUGGGUGGGAAAAAAAAAAAAAAAAAAAA (structured_RNA) [NONHCVG4-A20] as the binder, how does the Kd [1] read?
A: Its Kd is 12 ± 3 nM.

Q: How did the Kd [2] turn out when AAAAAAAAAAAAAAAAAAAA (ssRNA) [A20] was run?
A: Its Kd is 4.9 nM.

Q: And the Kd [3]?
A: Its Kd is 6 ± 1 nM.

Q: How did the Kd ([4]; parallel G4 (three-tetrad)) turn out when AAGGGCUGCGGGUGGGCAGGGAA (structured_RNA) [HCVG4] was run?
A: Its Kd is 17 ± 4 nM.

Q: Which Kd [1] does the source give for AAGGGCUGCGGGUGGGCAGGGAAAAAAAAAAAAAAAAAAAA (structured_RNA) [HCVG4-A20] here?
A: Its Kd is 11 ± 3 nM.

Q: Which Kd ([4]; parallel G4 (two-tetrad)) does the source give for AAGGGAGGGGGGGUCCUGGAGGAA (structured_RNA) [NEGG4] here?
A: The Kd was 19 ± 5 nM.

Q: Which Kd ([4]; parallel G4 (three-tetrad)) does the source give for AAGGGUGGGUGGGUGGGAA (structured_RNA) [NONHCVG4] here?
A: The Kd was 23 ± 7 nM.

Q: How did the Kd [5] turn out when AAGGGAGGGGGGGUCCUGGAGGAAAAAAAAAAAAAAAAAAAA (structured_RNA) [NEGG4-A20] was run?
A: Its Kd is 6 ± 2 nM.
